Assay results: patent US7132278B2, “PAS kinase” (Board of Regents, The University of Texas System, priority 2001, dated 2006)

Tested on: AMARA peptide
Assay: PASK kinase assay, 32P incorporation into AMARA peptide substrate
Type: biochemical, human
Conditions: for Catalytic activity: baculovirus-expressed enzyme variant
Experimental: Biochemical properties of the Pask enzyme. A recombinant baculovirus was engineered to overexpress human PASK enzyme in cultured insect cells. The enzyme was expressed as a fusion with a His6 tag at its amino terminus such that the recombinant polypeptide could be purified by Ni-affinity chromatography. Routine enzyme preparations were harvested from 0.8 liter of cultured Sf-9 cells. Cells were lysed by dounce homogenization in 50 mM Tris-HCl, pH 8.0, 100 mM NaCl, 0.04% β-mercaptoethanol (“lysis buffer”) and spun at 100,000×G for one hour to remove insoluble debris. Soluble material (˜50 ml) was then applied to a 3 ml bed volume of Ni-affinity resin. Following application and 50× column volume wash, bound material was eluted with storage buffer (50 mM HEPES, pH 7.4, 100 mM NaCl, 1 mM DTT, 1 mM EDTA) supplemented with 250 mM imidazole. Eluted material was sequentially subjected to Mono-Q, anion-exchange chromatography, and eluted with increasing NaCl concentration. Fractions were evaluated by SDS-PAGE to identify PASK enriched fractions, pooled and dialyzed against storage buffer supplemented with 10% glycerol. Typical enzyme preparations yield 0.5 mg of intact PASK enzyme judged to be greater than 95% pure by visual inspection of Coomassie-stained SDS-PAGE gels.
Kinetic data were used to characterize the activities of PASK enzyme samples derived without modification from baculovirus and following pre-phosphorylation in the presence of ATP. Enzyme activity was monitored using a synthetic substrate bearing the sequence NH2-[…]-CO2H (AMARA peptide, SEQ ID NO:9). The serine residue in this peptide is known to be phosphorylated by both AMPK and Snf1 [2], both of which are exceedingly similar in primary amino acid sequence to the catalytic domain of PASK. The three arginine residues located at the carboxyl terminus of the AMARA peptide allow avid binding to phosphocellulose paper, thereby facilitating quantitation of ^32P incorporation catalyzed by PASK from [γ-^32P]ATP. […] Moreover, lambda phosphatase treatment generated an enzyme which had 7-fold lower activity than the unmodified enzyme, and this treatment was fully reversible by allowing the enzyme to autophosphorylate in the presence of ATP.
PASK concentrations (0.5–2 μg/ml) were determined to have linear rates with respect to protein concentration and time. Kinetic constants were determined using peptide substrate concentrations between 0.06–1 mM. The data were fit to a non-linear Michaelis-Menten equation using the GraphPad Prism 2.0 program. Vmax values given are μmol/min/mg. NS indicates an SE less than 0.05.

Molecule	Catalytic activity	Vmax (Pre-phosphorylated enzyme, peptide substrate)	Km (Pre-phosphorylated enzyme, peptide substrate 0.06–1 mM)
K1028R: dominant negative human PASK, conserved lysine in ATP-binding region mutated to arginine (protein, UniProt Q96RG2 1-1323, looked up, variant K1028R) PAS domain-containing …: MEDGGLTAFEEDQRCLSQSLPLPVSAEGPAAQTTAEPSRSFSSAHRHLSRRNGLSRLCQSRTALSEDRWSSYCLSSLAAQNICTSKLHCPAAPEHTDPSEPRGSVSCCSLLRGLSSGWSSPLLPAPVCNPNKAIFTVDAKTTEILVANDKACGLLGYSSQDLIGQKLTQFFLRSDSDVVEALSEEHMEADGHAAVVFGTVVDIISRSGEKIPVSVWMKRMRQERRLCCVVVLEPVERVSTWVAFQSDGTVTSCDSLFAHLHGYVSGEDVAGQHITDLIPSVQLPPSGQHIPKNLKIQRSVGRARDGTTFPLSLKLKSQPSSEEATTGEAAPVSGYRASVWVFCTISGLITLLPDGTIHGINHSFALTLFGYGKTELLGKNITFLIPGFYSYMDLAYNSSLQLPDLASCLDVGNESGCGERTLDPWQGQDPAEGGQDPRINVVLAGGHVVPRDEIRKLMESQDIFTGTQTELIAGGQLLSCLSPQPAPGVDNVPEGSLPVHGEQALPKDQQITALGREEPVAIESPGQDLLGESRSEPVDVKPFASCEDSEAPVPAEDGGSDAGMCGLCQKAQLERMGVSGPSGSDLWAGAAVAKPQAKGQLAGGSLLMHCPCYGSEWGLWWRSQDLAPSPSGMAGLSFGTPTLDEPWLGVENDREELQTCLIKEQLSQLSLAGALDVPHAELVPTECQAVTAPVSSCDLGGRDLCGGCTGSSSACYALATDLPGGLEAVEAQEVDVNSFSWNLKELFFSDQTDQTSSNCSCATSELRETPSSLAVGSDPDVGSLQEQGSCVLDDRELLLLTGTCVDLGQGRRFRESCVGHDPTEPLEVCLVSSEHYAASDRESPGHVPSTLDAGPEDTCPSAEEPRLNVQVTSTPVIVMRGAAGLQREIQEGAYSGSCYHRDGLRLSIQFEVRRVELQGPTPLFCCWLVKDLLHSQRDSAARTRLFLASLPGSTHSTAAELTGPSLVEVLRARPWFEEPPKAVELEGLAACEGEYSQKYSTMSPLGSGAFGFVWTAVDKEKNKEVVVRFIKKEKVLEDCWIEDPKLGKVTLEIAILSRVEHANIIKVLDIFENQGFFQLVMEKHGSGLDLFAFIDRHPRLDEPLASYIFRQLVSAVGYLRLKDIIHRDIKDENIVIAEDFTIKLIDFGSAAYLERGKLFYTFCGTIEYCAPEVLMGNPYRGPELEMWSLGVTLYTLVFEENPFCELEETVEAAIHPPYLVSKELMSLVSGLLQPVPERRTTLEKLVTDPWVTQPVNLADYTWEEVFRVNKPESGVLSAASLEMGNRSLSDVAQAQELCGGPVPGEAPNGQGCLHPGDPRLLTS	completely inactive		
T1165A: PASK mutant, threonine residue 1165 changed to alanine (protein, UniProt Q96RG2 1-1323, looked up, variant T1165A) PAS domain-containing …: MEDGGLTAFEEDQRCLSQSLPLPVSAEGPAAQTTAEPSRSFSSAHRHLSRRNGLSRLCQSRTALSEDRWSSYCLSSLAAQNICTSKLHCPAAPEHTDPSEPRGSVSCCSLLRGLSSGWSSPLLPAPVCNPNKAIFTVDAKTTEILVANDKACGLLGYSSQDLIGQKLTQFFLRSDSDVVEALSEEHMEADGHAAVVFGTVVDIISRSGEKIPVSVWMKRMRQERRLCCVVVLEPVERVSTWVAFQSDGTVTSCDSLFAHLHGYVSGEDVAGQHITDLIPSVQLPPSGQHIPKNLKIQRSVGRARDGTTFPLSLKLKSQPSSEEATTGEAAPVSGYRASVWVFCTISGLITLLPDGTIHGINHSFALTLFGYGKTELLGKNITFLIPGFYSYMDLAYNSSLQLPDLASCLDVGNESGCGERTLDPWQGQDPAEGGQDPRINVVLAGGHVVPRDEIRKLMESQDIFTGTQTELIAGGQLLSCLSPQPAPGVDNVPEGSLPVHGEQALPKDQQITALGREEPVAIESPGQDLLGESRSEPVDVKPFASCEDSEAPVPAEDGGSDAGMCGLCQKAQLERMGVSGPSGSDLWAGAAVAKPQAKGQLAGGSLLMHCPCYGSEWGLWWRSQDLAPSPSGMAGLSFGTPTLDEPWLGVENDREELQTCLIKEQLSQLSLAGALDVPHAELVPTECQAVTAPVSSCDLGGRDLCGGCTGSSSACYALATDLPGGLEAVEAQEVDVNSFSWNLKELFFSDQTDQTSSNCSCATSELRETPSSLAVGSDPDVGSLQEQGSCVLDDRELLLLTGTCVDLGQGRRFRESCVGHDPTEPLEVCLVSSEHYAASDRESPGHVPSTLDAGPEDTCPSAEEPRLNVQVTSTPVIVMRGAAGLQREIQEGAYSGSCYHRDGLRLSIQFEVRRVELQGPTPLFCCWLVKDLLHSQRDSAARTRLFLASLPGSTHSTAAELTGPSLVEVLRARPWFEEPPKAVELEGLAACEGEYSQKYSTMSPLGSGAFGFVWTAVDKEKNKEVVVKFIKKEKVLEDCWIEDPKLGKVTLEIAILSRVEHANIIKVLDIFENQGFFQLVMEKHGSGLDLFAFIDRHPRLDEPLASYIFRQLVSAVGYLRLKDIIHRDIKDENIVIAEDFTIKLIDFGSAAYLERGKLFYTFCGAIEYCAPEVLMGNPYRGPELEMWSLGVTLYTLVFEENPFCELEETVEAAIHPPYLVSKELMSLVSGLLQPVPERRTTLEKLVTDPWVTQPVNLADYTWEEVFRVNKPESGVLSAASLEMGNRSLSDVAQAQELCGGPVPGEAPNGQGCLHPGDPRLLTS	Catalytically inactive		
S1273,77,80A: PASK mutant, serine residues 1273, 1277 and 1280 changed to alanine (protein, left off: small tags and cut ends, PASK mutant, serine residues 1273, 1277 and 1280 changed to alanine) MEDGGLTAFEEDQRCLSQSLPLPVSAEGPAAQTTAEPSRSFSSAHRHLSRRNGLSRLCQSRTALSEDRWSSYCLSSLAAQNICTSKLHCPAAPEHTDPSEPRGSVSCCSLLRGLSSGWSSPLLPAPVCNPNKAIFTVDAKTTEILVANDKACGLLGYSSQDLIGQKLTQFFLRSDSDVVEALSEEHMEADGHAAVVFGTVVDIISRSGEKIPVSVWMKRMRQERRLCCVVVLEPVERVSTWVAFQSDGTVTSCDSLFAHLHGYVSGEDVAGQHITDLIPSVQLPPSGQHIPKNLKIQRSVGRARDGTTFPLSLKLKSQPSSEEATTGEAAPVSGYRASVWVFCTISGLITLLPDGTIHGINHSFALTLFGYGKTELLGKNITFLIPGFYSYMDLAYNSSLQLPDLASCLDVGNESGCGERTLDPWQGQDPAEGGQDPRINVVLAGGHVVPRDEIRKLMESQDIFTGTQTELIAGGQLLSCLSPQPAPGVDNVPEGSLPVHGEQALPKDQQITALGREEPVAIESPGQDLLGESRSEPVDVKPFASCEDSEAPVPAEDGGSDAGMCGLCQKAQLERMGVSGPSGSDLWAGAAVAKPQAKGQLAGGSLLMHCPCYGSEWGLWWRSQDLAPSPSGMAGLSFGTPTLDEPWLGVENDREELQTCLIKEQLSQLSLAGALDVPHAELVPTECQAVTAPVSSCDLGGRDLCGGCTGSSSACYALATDLPGGLEAVEAQEVDVNSFSWNLKELFFSDQTDQTSSNCSCATSELRETPSSLAVGSDPDVGSLQEQGSCVLDDRELLLLTGTCVDLGQGRRFRESCVGHDPTEPLEVCLVSSEHYAASDRESPGHVPSTLDAGPEDTCPSAEEPRLNVQVTSTPVIVMRGAAGLQREIQEGAYSGSCHHRDGLRLSIQFEVRRVELQGPTPLFCCWLVKDLLHSQRDSAARTRLFLASLPGSTHSTAAELTGPSLVEVLRARPWFEEPPKAVELEGLAACEGEYSQKYSTMSPLGSGAFGFVWTAVDKEKNKEVVVKFIKKEKVLEDCWIEDPKLGKVTLEIAILSRVEHANIIKVLDIFENQGFFQLVMEKHGSGLDLFAFIDRHPRLDEPLASYIFRQLVSAVGYLRLKDIIHRDIKDENIVIAEDFTIKLIDFGSAAYLERGKLFYTFCGTIEYCAPEVLMGNPYRGPELEMWSLGVTLYTLVFEENPFCELEETVEAAIHPPYLVSKELMSLVSGLLQPVPERRTTLEKLVTDPWVTQPVNLADYTWEEVCRVNKPEAGVLAAAALEMGNRSLSDVAQAQELCGGPVPGEAPNGQGCLHPGDPRLLTS		0.4 µmol/min/mg	300 µM
